Laboratory results as given in patent US20110009283A1.
Numbering of substitutions follows the chain as printed. Names may count otherwise. “And” between values parts separate entries of the source, which are not always exact repeats. Equal entries are not always repeated. Where two headings read alike, the source gives them in different places. Where no end group is shown, it is not given here.

What was measured:
[1] = molecular target: T1, Kv1.3 K+ channel, wild-type, expressed in cells (species not stated) (Homo sapiens (Human)), P22001; assay: panning of a 2:2:96 phage mixture on HEK cells expressing Kv1.3
T1 sequence (P22001 whole entry): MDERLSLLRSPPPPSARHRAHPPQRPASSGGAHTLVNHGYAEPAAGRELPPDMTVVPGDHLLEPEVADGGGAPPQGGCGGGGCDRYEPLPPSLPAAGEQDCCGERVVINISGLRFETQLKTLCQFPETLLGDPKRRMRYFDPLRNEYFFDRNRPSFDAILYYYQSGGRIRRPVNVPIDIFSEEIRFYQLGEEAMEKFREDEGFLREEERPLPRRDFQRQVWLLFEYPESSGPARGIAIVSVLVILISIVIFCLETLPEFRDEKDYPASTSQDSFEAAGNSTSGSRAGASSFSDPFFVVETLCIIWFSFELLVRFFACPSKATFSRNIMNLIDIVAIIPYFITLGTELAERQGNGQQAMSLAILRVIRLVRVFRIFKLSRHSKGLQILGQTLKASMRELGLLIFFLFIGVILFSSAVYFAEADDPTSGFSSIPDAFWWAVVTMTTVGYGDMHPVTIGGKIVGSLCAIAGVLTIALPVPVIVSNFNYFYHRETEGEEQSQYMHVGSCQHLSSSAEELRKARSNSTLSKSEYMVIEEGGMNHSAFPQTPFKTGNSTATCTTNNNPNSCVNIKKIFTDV

[2] = molecular target: T1, Kv1.3 K+ channel, wild-type, expressed …; assay: phage panning on COS cells transfected with Kv1.3 vs vector; 5x10^11 phagemids
[3] = molecular target: antiserum to sarafotoxin S6b
[4] = molecular target: T1, Kv1.3 K+ channel, wild-type, expressed …
[5] = molecular target: T1, Kv1.3 K+ channel, wild-type, expressed …; assay: cell-based or functional assay
[6] = molecular target: T1, Kv1.3 K+ channel, wild-type, expressed …; assay: one round of phage panning on mammalian cells expressing Kv1.3
[7] = molecular target: T1, Kv1.3 K+ channel, wild-type, expressed …; remark: listed apart in the source
[8] = molecular target: T1, Kv1.3 K+ channel, wild-type, expressed …; assay: phage panning on HEK cells transfected with Kv1.3 vs vector; 5x10^11 phagemids
[9] = molecular target: T2, Rattus Kv1.2 (Rattus), P63142
T2 chain: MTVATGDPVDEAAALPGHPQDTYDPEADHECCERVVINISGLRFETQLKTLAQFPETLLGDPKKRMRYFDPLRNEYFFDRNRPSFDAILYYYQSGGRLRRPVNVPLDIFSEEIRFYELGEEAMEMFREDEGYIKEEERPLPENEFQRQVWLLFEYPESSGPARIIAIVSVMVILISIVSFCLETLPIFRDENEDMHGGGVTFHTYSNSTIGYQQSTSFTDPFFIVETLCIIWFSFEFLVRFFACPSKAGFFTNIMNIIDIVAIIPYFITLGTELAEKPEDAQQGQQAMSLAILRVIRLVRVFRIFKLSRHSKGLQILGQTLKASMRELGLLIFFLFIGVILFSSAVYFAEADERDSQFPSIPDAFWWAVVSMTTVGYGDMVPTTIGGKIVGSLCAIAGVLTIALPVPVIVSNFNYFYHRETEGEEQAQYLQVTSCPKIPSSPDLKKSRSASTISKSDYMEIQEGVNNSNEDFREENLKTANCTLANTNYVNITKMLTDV

[10] = molecular target: T3, Rattus Kv1.1 (Rattus), P10499
T3 chain: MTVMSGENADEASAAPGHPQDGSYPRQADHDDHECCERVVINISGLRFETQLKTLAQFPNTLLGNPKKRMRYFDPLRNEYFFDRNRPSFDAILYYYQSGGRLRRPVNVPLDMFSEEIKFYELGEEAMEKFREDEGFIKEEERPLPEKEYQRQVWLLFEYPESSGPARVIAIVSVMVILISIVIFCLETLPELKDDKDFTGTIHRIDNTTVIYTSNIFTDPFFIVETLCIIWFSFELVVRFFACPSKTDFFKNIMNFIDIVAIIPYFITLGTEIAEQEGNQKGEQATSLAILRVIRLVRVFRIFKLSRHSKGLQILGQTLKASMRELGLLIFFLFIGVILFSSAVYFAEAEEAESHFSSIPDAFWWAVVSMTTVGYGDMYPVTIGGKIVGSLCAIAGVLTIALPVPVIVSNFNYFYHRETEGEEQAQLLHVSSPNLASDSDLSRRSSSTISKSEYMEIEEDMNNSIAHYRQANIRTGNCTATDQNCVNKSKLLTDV

[11] = molecular target: Homo Kv1.3 (Homo), P22001
Sequence of Homo Kv1.3 (Homo), P22001 (P22001 whole entry): as the sequence (P22001 whole entry) above

[12] = molecular target: Kv1.2 K+ channel (species not stated); assay: cell-based or functional assay
[13] = molecular target: BK channel (species not stated); assay: cell-based or functional assay
[14] = molecular target: Kv1.1 K+ channel (species not stated); assay: cell-based or functional assay
[15] = molecular target: T4, Mus BK (big conductance calcium-activated K channel) (Mus), Q08460
T4 sequence (Q08460 whole entry): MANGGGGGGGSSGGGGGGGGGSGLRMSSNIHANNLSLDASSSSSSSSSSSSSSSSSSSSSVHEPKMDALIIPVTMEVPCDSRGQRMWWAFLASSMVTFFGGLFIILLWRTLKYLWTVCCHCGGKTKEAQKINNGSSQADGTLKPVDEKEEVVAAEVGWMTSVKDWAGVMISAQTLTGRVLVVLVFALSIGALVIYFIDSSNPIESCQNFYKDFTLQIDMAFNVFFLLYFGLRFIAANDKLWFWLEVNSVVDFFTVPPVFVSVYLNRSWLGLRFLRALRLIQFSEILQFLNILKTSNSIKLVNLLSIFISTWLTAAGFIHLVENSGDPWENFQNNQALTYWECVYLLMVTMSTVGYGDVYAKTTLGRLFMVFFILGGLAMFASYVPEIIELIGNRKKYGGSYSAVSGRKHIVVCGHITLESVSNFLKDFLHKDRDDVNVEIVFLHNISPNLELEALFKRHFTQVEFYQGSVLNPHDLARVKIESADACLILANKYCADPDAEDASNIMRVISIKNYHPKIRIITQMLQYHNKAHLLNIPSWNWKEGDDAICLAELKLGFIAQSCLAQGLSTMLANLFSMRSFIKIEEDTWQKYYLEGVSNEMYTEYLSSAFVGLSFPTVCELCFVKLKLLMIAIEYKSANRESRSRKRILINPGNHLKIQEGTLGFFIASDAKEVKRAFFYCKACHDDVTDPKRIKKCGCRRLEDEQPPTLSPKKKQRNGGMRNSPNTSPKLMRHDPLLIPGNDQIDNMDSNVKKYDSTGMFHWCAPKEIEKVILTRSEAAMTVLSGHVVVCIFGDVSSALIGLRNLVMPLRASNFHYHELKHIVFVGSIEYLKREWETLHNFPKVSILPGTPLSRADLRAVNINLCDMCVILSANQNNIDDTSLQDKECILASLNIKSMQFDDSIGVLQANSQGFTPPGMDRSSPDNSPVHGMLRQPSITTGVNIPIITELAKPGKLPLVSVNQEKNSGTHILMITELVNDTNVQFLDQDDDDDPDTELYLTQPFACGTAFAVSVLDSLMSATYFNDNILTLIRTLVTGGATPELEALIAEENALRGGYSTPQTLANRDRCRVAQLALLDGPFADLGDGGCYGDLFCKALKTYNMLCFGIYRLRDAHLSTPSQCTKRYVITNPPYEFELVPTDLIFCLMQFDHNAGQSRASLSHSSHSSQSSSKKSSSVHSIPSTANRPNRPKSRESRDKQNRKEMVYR

[16] = molecular target: T2, Rattus Kv1.2 (Rattus), P63142; assay: two-electrode voltage clamp, kinetics of block in Xenopus oocytes
[17] = molecular target: T3, Rattus Kv1.1 (Rattus), P10499; assay: as above
[18] = molecular target: Homo Kv1.3 (Homo), P22001; assay: as above
[19] = molecular target: T4, Mus BK (big conductance …); assay: as above
[20] = molecular target: T1, Kv1.3 K+ channel, wild-type, expressed …; remark: listed apart in the source
KcsA, wild-type, P0A334 = molecular target: T5, KcsA, wild-type, P0A334; assay: phage panning of Shk / Camel VHH mixture on KcsA (n = 17-20)
T5 chain: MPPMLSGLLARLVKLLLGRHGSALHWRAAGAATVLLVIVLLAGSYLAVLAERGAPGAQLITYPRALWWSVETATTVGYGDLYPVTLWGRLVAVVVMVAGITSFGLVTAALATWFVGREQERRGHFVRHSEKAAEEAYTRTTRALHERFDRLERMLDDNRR

[21] = molecular target: KcsA-Kv1.3 (KcsA carrying a segment of the Kv1.3 pore loop)
[22] = molecular target: antiserum to sarafotoxin S6b; remark: listed apart in the source

B1: Kaliotoxin-1 phage (KTX-phage) (peptide)
chain: GVEINVKCSGSPQCLKPCKDAGMRFGKCMNRKCHCTPK
modifications: not checked
B1 showed a % of phages after the 2nd panning [1] of 40%, a fold enrichment (Kv1.3-transfected vs vector cells) [2] of 10 fold and an Output (% Ligands) [3] of 0%. The output KTX (%) [4] was 22% and 30% and 26%, the block of Kv1.3 currents, whole-cell patch-clamp in HEK293 cells, 1 nM KTX-phage [5] was 35% and the time to half reversal of inhibition on washing [5] was 20 min. For the same binder, the Fold Enrichment [6] was 4.3 fold and 5.2 fold, the % of recovered phage, 2nd round [7] was 0% and the % of recovered phage, 3rd round [7] was 58%. The fold enrichment (Kv1.3-transfected vs vector cells) [8] was 20 fold.

B2: Agitoxin-2 (AgTx2) (peptide)
peptide: B1 chain with E3P, K7S, S9T, L15I
modifications: not checked
B2 gave a Ki [9] of 3.4 nM, a Ki [10] of 0.17 nM and a Ki [11] of 0.041 nM. The approximate IC50 (nM) of channel block [12] was 26.8 nM, the approximate IC50 (nM) of channel block [13] was 1150 nM and the approximate IC50 (nM) of channel block [14] was 0.04 nM. It also gave an approximate IC50 (nM) of channel block [5] of 0.004 nM.

B3: Kaliotoxin-1 (KTX) (peptide)
peptide: B1 chain
modifications: not checked
B3 was tested, and the Ki [9] was 20 nM, the Ki [10] was 1.1 nM and the Ki [11] was 0.008 nM. It also gave a Ki [15] of 1.6 nM, an approximate IC50 (nM) of channel block [12] of 1.4 nM and an approximate IC50 (nM) of channel block [13] of 5 nM. The approximate IC50 (nM) of channel block [14] was 0.1 nM, the approximate IC50 (nM) of channel block [5] was 0.5 nM and the koff [16] was 0.21 s⁻¹. It also gave a kon [16] of 1.3e+07 M⁻¹ s⁻¹, a koff [17] of 0.009 s⁻¹ and a kon [17] of 3e+07 M⁻¹ s⁻¹. For the same binder, the koff [18] was 0.007 s⁻¹, the kon [18] was 8e+08 M⁻¹ s⁻¹ and the koff [19] was 0.0211 s⁻¹. For the same binder, the kon [19] was 21000 M⁻¹ s⁻¹.

B4: DDD-KTX-phage (inactive kaliotoxin-1, R24D, K27D, R31D, on phage) (peptide)
chain: B1 chain with R24D, K27D, R31D
modifications: not checked
B4 gave a # of genotype, Test [20] of 2 colonies, a % of genotype, Test [20] of 10% and a % of recovered phage, 2nd round [7] of 100%. It also gave a % of recovered phage, 3rd round [7] of 42%.

B5: Shk phage (sea anemone K+ channel toxin ShK on phage) (peptide)
chain: RSCIDTIPKSRCTAFQCKHSMKYRLSFCRKTCGTC
modifications: not checked
Work on B5 yielded a % phages, OUTPUT (KcsA, wild-type, P0A334) of 0%.

B6: Charybdotoxin (CTX) (peptide)
peptide: ZFTNVSCTTSKECWSVCQRLHNTSRGKCMNKKCRCYS
modifications: not checked
Work on B6 yielded a Ki [9] of 9 nM, a Ki [10] greater than 1000 nM and a Ki [11] of 0.9 nM. The Ki [15] was 5 nM, the approximate IC50 (nM) of channel block [12] was 5.6 nM and the approximate IC50 (nM) of channel block [13] was 3 nM. For the same binder, the approximate IC50 (nM) of channel block [14] was 1500 nM and the approximate IC50 (nM) of channel block [5] was 2.5 nM.

B7: sarafotoxin S6b phage (peptide)
chain: CSCKDMTDKECLYFCHQDVIW
modifications: cysteine pairing not given here; also: displayed on phage via linker and coat protein
B7 was tested, and the Output (% Ligands) [21] was 0% and the Output (% Ligands) [22] was 100%.
